From the DeepSol protein solubility set

Experiment: soluble on expression in E. coli; label from the status in PepcDB or PDB records

Sequence | soluble on expression in E. coli
MELSEPLENYLKEIYEIELLKGYARVSDLILAFNVSPGTVSKALEKLEKIGLIERDNKKIKLTAEGKKIAEKLIRAHRLSERLLTDIIGLDWIRAHQLAHRLEHIWPEDVVDKIDELLGKPLTCPHGHPIPGREVKVNGIKLSEAECNKKYKVIMIIREEEWILSMADELNIKPGVEIKLIKKNENDFVIEIDNKKESIPKALAEEVLVSE | soluble
MFPIKKRKAIKNNNINAAQIPKHIAIIMDGNGRWAKQKKMPRIKGHYEGMQTVRKITRYASDLGVKYLTLYAFSTENWSRPKDEVNYLMKLPGDFLNTFLPELIEKNVKVETIGFIDDLPDHTKKAVLEAKEKTKHNTGLTLVFALNYGGRKEIISAVQLIAERYKSGEISLDEISETHFNEYLFTANMPDPELLIRTSGEERLSNFLIWQCSYSEFVFIDEFWPDFNEESLAQCISIYQNRHRRFGGL | soluble
MGSDKIHHHHHHMKIELENCQKSLTLKDFEEIESKLGYALPERLKEFYLQYNGGSTKQTASINKYQEVEIEDFFPFKYNKDFKNDPRYTAEGETLELRKAGAISDSILIFAMESTDEGRITIDLVNGKIYLYPIVGMQDVIFNFEEPRLVANSIDDFFDNLVVLDGHKAIPAIEEIEEGQTETAGVMPELSDCSASLTKEDIKNFEVELNVKIPAGMKNFYLKFNGGMPSPYCYQPQDEDLDRVEINAFFPIKERTNAFETIEVIAKGIWSRNLMPCNLLPFAMDSGGNYYALNLKNKKIYYYLTDEWDENASREYNFETNTRYIAQSFNYFINHFIEEEE | not soluble
MGSDKIHHHHHHMKRRDFLITSAAALSFLLSGCAIGDRVVEEPLTPKSNPPRKSVVYVLKTERREEAVSKLMQNFSDFEGSTVGLKANYNSADPFPASTHPKTLSAIVDVLKEQKAEVFMAERSGMGNTSAVLKTMGILDLAREKGFTVIDLDSYDGWVLHQPEDSHWKKGYPFADIFLTVDSVIQTCCLKTHRFGGHFTMSLKNSVGMVARRWKGHDYMSELHTSPHMRKMIAEINVSYSPKIVIMDAIKGFSHGGPERGTVIEPGLMIASNDRVAIDAVGVAILRIHGTTPEVSKGSVFEQEQIARAIEIGLSSGEFEIIPANDDAEKICSEIEAVLWG | not soluble
MSLKSTVLLIDDDQDVLDSYLHLMSIAGLTAKAVIDPTQAMSHIQPDWNGVVLLDMYMPQLHGMELLKQIKAVDDKIPVIVITGHGDIPMAVEAVKMGACDFLEKPINPPQLLTLIKQHLELRRSFIEQKLLLSRSVKRELVGKSAQMEQIRSHVAQYALLNRHVVIVGESGCGRHTIAYLIHQLTTNNGHLPWVELVASAKTEWSTVEPKVQESAGGTLLIDHIELLSEEVQRNVVQSLLNQERLNRPRTRVIAVIDQPPEQLIAQNQLLPELYYLLNQGQIDVPLLRQRPDDIAALFHYFLKQSCYKLGKPMPNVEPHYLALLRAHQWPGNVRELRNVAELYAIGIVKLAGKERLYNQEEMLSPLDELVDDYEKQVIEDALFLFSGRVADAANYLQVPRKKLYLRMKKHGLEKDAFKAREGHHHHHH | soluble
MKLTVKRSVFLQELQTVQRAISSKTTIPILTGVKIVLSEDGLSLTGSNADISIESFLSKDDEKAQMTIERTGSIVLQSRFFGEIIRKLPEDMFTMEVLDNNQVAITSGKADFTVNGLDADNYPHLPVIDTQNQMKLPVHLLTKIISETGFAVSMHESRPILTGVHFILENQKLLAVATDSHRLSQRVIPTEQAVEDFNIVIPGKSLTELSRSLTNEEEMVEISIMENQVLFKTETMYFYSRLLEGNYPDTNRLIPTSHNTQIEFYVPELLSAIERASLLSHEGRNNIVRLSISPDSVVLYGNSPEIGKVEEALNYENVSGEALDISFNPDYMKDALRAFGDMNITVKFLSPIRPFTLEPTETELDFIQLITPVRTN | not soluble
MTRPPAGTPYWDAAELPTQPQLHGVVTADVAVVGAGLAGLSCAYHLAERAPGLDIAVVDAEHPAAGASGRGTGLLGPRAGPAVDRAVRRFGPQTARRMHRASERAVRDVLALCARLDVPCGLRTGEQLVATRSSAGLAALARQARACRELGLDVPVLTPAGIRDRVGVPYRAALLHRPAATLDPAALTCALARACADKGVRFYGRSPLLALRPGDLVGPELVLPHGRLYAGQAVLAVNSAAQALDLPVGTVLPLEVYAVATEPLSAPAYEALGGRAGHAVVDAVPMAPYFRLLPDRGLVAGGGTATVPAGVGAPRLQAVRERAWSWLERWLRALHPDLARVRVTHRWSGRIGMTGDDLPVVGPVPGYDDVWYIGGCCGHGLALSVAHGAHVAAALLGEPEPGEPLPWHRSRAPRLPARGPAGPLLRAYVDAMGRIARHTCLEHHHHHH | not soluble
MSCTGFWRKLASGEECGAAARLLGAVLAIPAALYGLVVRLRALAYARGLSTVRHLDRPVISVGNLTVGGTGKTPMVAYLARRLMARGKRVAVISRGYGGSLEGETRIVSDGRTIVLSAAEAGDEPVHLATSVPGLMTVIGTDRYTAGLLALEQLDPDVFILDDGYQHLRLHRDLNILLMDCNRPLGNGRTLPAGLLREPQTAVRRADLVVYTRCTGGKAPAVHGMIPSCRAGHALTGAALLPDGEVQPLAALRGLRGVACAGIAEPEGFFDALRREGLDIVAAIPFADHASYGEREVSTLREAAAGADYLITTGKDGVKLSAHLARLLPVYATVLEMRPLDPAPLEAALDKVLTHISSCKSLEHHHHHHTHISSCKSLEHHHHHHTHISSCKSLEHHHHHHTHISSCKSLEHHHHHHTHISSCKSLEHHHHHHTHISSCKSLEHHHHHHTHISSCKSLEHHHHHH | not soluble
MRIFERYNPSKVAKYVKTLFRGRLYIKGVGAFEFDYGKILLPKKQDKQHLLVMSEVNRQVIRLQAEMGLEHHHHHH | not soluble
MVRKGCNSLVRAEKILTHIAWVGMASYMELLNKFQYPKSSLLNLLNVMVDCGFLIKNKNGYYSLGIKNYELGCQALHRQNIFEVTKRPMQELSLKSGLVCHLGAMESISAIYLDKIESPDSVPTSKSWIGKKLELHITALGKALLAWKTREELDYFLEALTLTPHTRNTFTDKKLFLEELQKTRLRGWAIDNEESTYGAVCLSMPVFNMYNRVNYAISLSGDPVVYSGNKIDSYLELLRKCAEQISYGLGYRNENEHLRKGN | soluble
MTAYGHMPGEAIECLSIAVELHKQEVIDAHGQVTIRVGFKIGGGIDQDPTKAPFKYPDSGVYITNVESGSPADVAGLRKHDKILQVNGADFTMMTHDRAVKFIKQSKVLHMLVARADLPPVSLH | not soluble
MSLKAFGFNQYGNSNVMEELNIPIPKIKPGEVLVKTTAFAINAFDIAVRNGQFRNNVTLLFPTILGTDGVGRIVKLGAGVHDYSIGDDVLARPGIGTYTEYFKVSVDHLGSRPSNYSPYEAAGLPLSGITAYNTLVHIAHVKQGQTVVILGSSGGVGSMLVQMAHALGLYVIGTDAESARETVLNLGASEFGAYDTERVSSKFKSMADILIDATNLGASIAGIQIIKPTGTYVSLTTLPKDRTLKPDVIYRQVIPRREYRDSDAFTTISLMIRNNQLHVPIDHLESFTLDGIRKGQSDVENGSPDGKVIVTLEGHHHHHH | not soluble
MGSDKIHHHHHHMNIAEIEVTHKVKEKEWKEFLSRSEYATVYHTPEWKKTLEESFGYKPYYLFVKDESDLIVGMLPLFYVKSKLTGNRLSSLPFSHISGPVGDKATKNFLISEAINLYKNLGASYLEIRDRVEDNRFLSKNMFSTYILELNPNIEEVWKQLHKGSVRRAIKKSEKSGVVVDTAKDIESLKEFYDLNCVGKRKIGVPCHPWKFFKNLFRFMNDYISLYVAKYQNNIIGGGIMIYYKDTVIYGYGAAHPHYLKLYPYNAFLWKSIKDACLSRYKYFDLGRAHYNVERGLMDFKRRWGTIEKKLYYSYYSKNKDLKILDMSGLKYRLGTKVIRKMPMPIYKKFSDRIFGSLG | not soluble
MGSDKIHHHHHHMKIGIVTFHRALNYGAVLQACAMRRIFSDHGEVEMVDYWPDYHSSHYSLLDTRFLNKNQSLSSRVRLLKSAIKRIILLPVRLKRNKKFLSFIDSNIVKVSNAPIKLANKIPDYFDVVVYGSDQIWRVYDFDNYPRPDMVYMGAGVLDGTRKIAFAASMGDVNVDTLCDDSVIKALKNFEHINVREQALSESLLKHSGLSSCVVLDPTFLVSSDVWKRMAETIPRNRKDNKYALFYSLIPSEESIRIAKNIAEEKGVELVEINGFETIGGLFNKSVAQSAGPLDFLELIMNAEFIVSTSFHGVVFSIIFEKQFCACGMKGHSERVRSLLSKLSIEDRLIDTVEQLESLGEIDYKEVTKLLAREIEHSKELLEYSLFE | not soluble
MGSDKIHHHHHHMSCLVLPLVSVGNIPQLSIDWLLNSQANEWEYLEALDSKYLVEFVGPLDRPEDGSDSLYKDADMKYSSALEVFYNKKRGLFAIQQRTPLVSVNYLNNFIVEIILPFLSKYNISEICIWDSLYAMEDENGVIVRPQEVYSLGEFYFDDEAELLSNLHLNDQESMVNNWLHFTPTSFQDKISVDQPIFKILFQILNASQRPKALRSIKYCSCLANEGDNSLDSQQFLQWIISQKVIKNAPPIVKFVRPISWQGAYGMADARDKFVDLYN | not soluble
MEIGTVTSQEEKLAYEKSIEMAGNYANQFDAQMEANQAIARTLACTMAEYGSQDREEAMSIIKRILNENPQLIGVYLGYEPDAFDGRDKNYINAPGHDSTGRFVPYCNKINGPVIIEPLVHYDSSDYYQLPKTTGKDTLTEPYFYEGIFMVSYDSPIFKNGEFAGIAGVDVPLEYVDDVASSIRTFDTGYAFMVSNTGIFLSHPTQKNWIGEKSLSDFDVEEIKNAASDIREGIGGHVEIKDPITGKTVIMFYEPVKTGDFSFVLVVPKEEMLAGVKDLRDRLLEHHHHHH | soluble
MAPASILCCDTDNRRPQMKLTGGCYCGALRYEAEGEPMLKAQCHCRACQSYSGGAPNLFMVMPAAGFRYVKGTPKSFRLEDRPDRVTRDFCATCGTGVASHRPGLPAVILKIGTLDDPALFKGPRAAVFAAEKQAFHIIPEGVHAFDGLPPT | not soluble
MLAKDSSLTRTGKGEIVDKDSSFTWYVGTIDEANAFIGLARVFSKDEKVRETLLEIQKMLFLVGAEPSLQKLSEKDLEWMLERVEEFERSVKKPHCFIILEKDESTAFLSVARAVVRRAERQAVRLYREGKARLLVVEWLNKLSYLLYLMILKEGGGDFEEI | not soluble
MSKNDHRITHNKSDKDNLDDDFSLFRDEVKGVKKLRQDTILHAPNRNPKQKEIRRTEREASDNDFYFSDEFMPHLTDEGPTRYARSDVSKYEVKRLRRGVYVPDVFLDMHGMTQQEAKRELGAMIAYCLKENVHCACVQHGIGKHILKQNVPLWLAQHPDVLAFHQAPLEFGGDGALLVLLSIPEK | not soluble
RSFGLIIPDLENTSYARLAKLIEQNSRKAGYQILIGCSDDDPETEKKVAEALISRRIDALFVASGMPSANEYYLKLQNSGTPVIALDRPMDDEHFCCVISEDFDAAFELTESVLSPEIKTIGLIGALQDLQVSKERELGFRSACQKDDTAMTVGYGLHFSREEGKKVLDKWVQADSLPDAIVTTSYTLLEGVLDVMLEKPELMSQVRLATFGDNRLLDFLPVKINSLPQQFELIADSAMELALNASAKRYKPGVELIPRKIVKRQ | not soluble
GGSGGTSTAGNPNVNVPNNQITAKSKKEFIQQAMPIAKAIEEKWGVPAEVVIAQAALESGWGKHVKGNAYFGIKGKGSQGSINFGTHEVINGKKISINDNFASYGGFGDAANGYGEFLNKNKRYREAFKHKDNPVEFAKAIARAGYATDPDYANKLTKIIQSNKF | not soluble
MGKRIAFWFEFASTYSYLSAMRIERAAADLGVTIAWEPFLLGPIFAAQGWTSSPFNLFPAKGRYMWRDMERLCARQGLPLTRPDPFPQNGLPAARLAMVAREMGHIAPFVRAVYAAQFGRGLVISDPQVLAECWAEAGLPPEAMEQAKSPEIKAALFAQGERAAALDLFGAPSFVVGEEVFWGDDRLDQALALAAQS | soluble
